B1: TacT^Y140F (tRNA-acetylating toxin, Y140F mutant) (enzyme)
chain: MGRVTAPEPLSAFHQVAEFVSGEAVLDDWLKQKGLKNQALGAARTFVVCKKDTKQVAGFYSLATGSVNHTEATGNLRRNMPDPIPVIILARLAVDLSFHGKGLGADLLHDAVLRCYRVAENIGVRAIMVHALTEEAKNFFIHHGFKSSQTQQRTLFLRLPQ
notes: also called T8^Y140F; source: purified; produced in the absence of its antitoxin A8 (E. coli expression strain BL21)
B2: TacT (tRNA-acetylating toxin), wild type (enzyme)
chain: MGRVTAPEPLSAFHQVAEFVSGEAVLDDWLKQKGLKNQALGAARTFVVCKKDTKQVAGFYSLATGSVNHTEATGNLRRNMPDPIPVIILARLAVDLSFHGKGLGADLLHDAVLRCYRVAENIGVRAIMVHALTEEAKNFYIHHGFKSSQTQQRTLFLRLPQ
notes: also called T8; the toxin

How the values were obtained:
[1] = molecular target: the molecule itself; experiment: crystal structure; T8^Y140F with Ac-CoA bound, 1.7 Å, space group P2_(1); a dimer in the asymmetric unit
[2] = molecular target: the molecule itself; experiment: SEC-MALS; size-exclusion chromatography with multi-angle laser light scattering (SEC-MALLS), in solution

Row | Protein | binding result [1] | stoichiometry N [2]
1 | B1 | binds | 
2 | B2 |  | 2
